Biological target: antibody-half molecule A7 with PF1H and PF1L-k0 (PF1H-DA303v2.n.HATF.B/PF1L-k0)
Assay: SPR (Biacore T200), about 50 RU of half molecule A captured on chip-bound biotinylated antigen peptide, half molecule B at 2.5 mg/mL as analyte (Example 10)
Experimental: The interaction between the obtained antibody-half molecules was analyzed using Biacore (registered trademark) T200. Biotin CAPture Kit, Series S (GE Healthcare) was used for the measurement, and HBS-EP+10X (GE Healthcare) diluted 1/10th was used as a running buffer. The measurement temperature was 25° C. For the sensor chip, Series S Sensor Chip CAP (GE Healthcare) onto which previously-biotinylated antigen peptides were allowed to interact and thereby immobilized was used. These chips were allowed to capture approximately 50 RU of the antibody-half molecule A of interest and then interact with the antibody-half molecule B of interest diluted with the running buffer at 2.5 mg/mL for 180 seconds at a flow rate of 30 μL/min, and measurement was carried out. The molar binding ratio was calculated based on the following Formula 2. The antibody-half molecule A captured on the chip was washed as described in the instructions attached to the kit, and the chip was regenerated and reused.
At this time, for the antibody-half molecule to be captured, PF1H (SEQ ID NO: 22), which is the H chain variable region portion of the anti-human IL6 receptor antibody described in WO 2009/041621, was used as the H chain variable region portion, PF1L (SEQ ID NO: 23), which is the L chain variable region portion of the anti-human IL6 receptor antibody described in WO 2009/041621, was used as the L chain variable region portion, and k0 was used as the L chain constant region portion. In addition, for the antibody-half molecules used as analytes, IC17H (SEQ ID NO: 24), which is the anti-KLH antibody described in WO 2015/174439, was used as the H chain variable region, IC17L (SEQ ID NO: 25), which is the anti-KLH antibody described in WO 2015/174439, was used as the L chain variable region, and k0 was used as L chain constant region.

Chain of antibody-half molecule A7 with PF1H and PF1L-k0 (PF1H-DA303v2.n.HATF.B/PF1L-k0) (heavy, as listed by the source): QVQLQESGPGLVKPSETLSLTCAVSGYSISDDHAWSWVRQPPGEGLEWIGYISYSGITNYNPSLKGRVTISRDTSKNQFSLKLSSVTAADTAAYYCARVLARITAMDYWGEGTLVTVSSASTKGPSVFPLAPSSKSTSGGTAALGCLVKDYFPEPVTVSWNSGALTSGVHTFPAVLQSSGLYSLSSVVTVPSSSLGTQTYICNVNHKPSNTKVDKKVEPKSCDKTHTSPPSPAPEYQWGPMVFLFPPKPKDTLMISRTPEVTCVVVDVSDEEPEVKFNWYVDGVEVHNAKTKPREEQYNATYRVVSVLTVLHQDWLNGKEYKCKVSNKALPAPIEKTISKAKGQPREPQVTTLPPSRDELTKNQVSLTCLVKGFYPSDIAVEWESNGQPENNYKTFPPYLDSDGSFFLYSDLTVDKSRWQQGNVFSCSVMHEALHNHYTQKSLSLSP

B1: antibody-half molecule B7 with IC17H and IC17L-k0 (IC17H-DB220v2.n.HATF.A/IC17L-k0) (antibody, human IgG1, kappa)
heavy: QVQLQQSGPQLVRPGASVKISCKASGYSFTSYWMHWVNQRPGQGLEWIGMIDPSYSETRLNQKFKDKATLTVDKSSSTAYMQLSSPTSEDSAVYYCALYGNYFDYWGQGTTLTVSSASTKGPSVFPLAPSSKSTSGGTAALGCLVKDYFPEPVTVSWNSGALTSGVHTFPAVLQSSGLYSLSSVVTVPSSSLGTQTYICNVNHKPSNTKVDKKVEPKSCDKTHTSPPSPAPELLGGPSVFLFPPKPKDTLMISRTPEVTCVVVDVSHEEPEVKFNWYVDGVEVHNAKTKPREEQYNSTYRVVSVLTVLHQDWLNGKEYKCKVSNDALPMPIEETISKAKGQPREPQVYTLPPSRDELTKNQVHLTCLVKGFYPSDIAVEWESNGQPENNYKTTPPYLDSDGSFALYSDLTVDKSRWQQGNVFSCSVMHEALHNHYTQKSLSLSP
light: DIQMTQSSSSFSVSLGDRVTITCKASEDIYNRLAWYQQKPGNAPRLLISGATSLETGVPSRFSGSGSGKDYTLSITSLQTEDVATYYCQQYWSTPYTFGGGTKLEVKRTVAAPSVFIFPPSDEQLKSGTASVVCLLNNFYPREAKVQWKVDNALQSGNSQESVTEQDSKDSTYSLSSTLTLSKADYEKHKVYACEVTHQGLSSPVTKSFNRGEC
Q: With B1 as the binder, how does the molar binding ratio read?
A: 0.32 molar ratio

— US20240417464A1 (published 2024)
